The values below come from publication PMC10352132 (Nature Structural & Molecular Biology, 2023).

The experiment addresses wild-type Rattus norvegicus GABA transporter 1 (rGAT1WT) (Rattus norvegicus, UniProt P23978). The conditions noted are these: one partner purified.

B1: Fab 9D5 (Fab, V domains shown)
VH: EVQLVESGGGLVKPGGSLKLSCAASGFTFSSYAMSWVRQSPEKRLEWVAEISSGGRYIYYSDTVTGRFTISRDNARNILHLEMSSLRSEDTAMYYCARGEVRQRGFDYWGQGTTLTVSS
VL: ENVLTQSPAIMSTSPGEKVTMTCRASSSVGSSYLHWYQQKSGASPKLWIYSTSNLASGVPARFSGSGSGTSYSLTISSVEAEDAATYYCQQFSGYPLTFGSGTKLEMK
notes: heavy chain of Fab 9D5; light chain of Fab 9D5; Heavy and light chains were synthesized and cloned into pFastBac Dual with an N-terminal GP64 signal peptide; Only VH and VL are modeled in PDB 8GNK; also called 9D5 Fab; 9D5-Fab; source: Sf9 cells, baculovirus, exported into the media; purified (Ni-NTA, SEC on Superdex 75)
B1: the binding result is on record as “no binding (tested: 50 ng of 9D5)”.
